The record followed here is the supplement of paper PMC9112550, “Optimization of the antimicrobial peptide Bac7 by deep mutational scanning” (BMC Biology, 2022).

The data set deals with Escherichia coli TOP10. Put plainly: shrunken log2 fold change of peptide-encoding DNA abundance (4.5 h post-induction vs induction); higher = less antimicrobial activity (less host growth inhibition). Conditions: time post-induction: 4.5 h; library: site-saturation at positions 5, 18, 19, 20.
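Note: peptides expressed intracellularly from a pBAD plasmid library in pooled LB shake-flask culture, induced with 0.3% L-arabinose, DNA abundance read by NGS, three biological replicates, DESeq2 with apeglm shrinkage.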

As for RRIRARPPRLPRPRPRPGHCPRP, the “shrunken log2 fold change” value is 0.0986.

RRIRMRPPRLPRPRPRPYASPRP: the “shrunken log2 fold change” value was -0.0515.

RRIRDRPPRLPRPRPRPRNYPRP: the “shrunken log2 fold change” value was -0.313.

For the sequence RRIRERPPRLPRPRPRPCMFPRP, the “shrunken log2 fold change” value was -0.531.

As to RRIRKRPPRLPRPRPRPTFMPRP, the “shrunken log2 fold change” value amounted to 0.189.

As to RRIRMRPPRLPRPRPRPLKGPRP, the “shrunken log2 fold change” value is -0.0357.

As for RRIRPRPPRLPRPRPRPSQRPRP, the “shrunken log2 fold change” value worked out at 0.229.

With RRIRMRPPRLPRPRPRPGADPRP, the “shrunken log2 fold change” value turned out to be 2.39.

Take RRIRFRPPRLPRPRPRPMIAPRP: the “shrunken log2 fold change” value was -0.195.

Consider RRIRERPPRLPRPRPRPCGPPRP, for which the “shrunken log2 fold change” value was -0.131.

RRIRERPPRLPRPRPRPAYEPRP: the “shrunken log2 fold change” value was -0.00975.

Regarding RRIRYRPPRLPRPRPRPTNNPRP, the “shrunken log2 fold change” value is -1.14.

With RRIRWRPPRLPRPRPRPVDLPRP, the “shrunken log2 fold change” value was -0.107.

For RRIRTRPPRLPRPRPRPYCHPRP, the “shrunken log2 fold change” value is -0.213.

On to RRIRGRPPRLPRPRPRPHEVPRP, for which the “shrunken log2 fold change” value stood at 0.431.

On to RRIRNRPPRLPRPRPRPDNAPRP, for which the “shrunken log2 fold change” value is -0.0737.

As to RRIRFRPPRLPRPRPRPSQQPRP, the “shrunken log2 fold change” value was -0.277.

Regarding RRIRLRPPRLPRPRPRPPCVPRP, the “shrunken log2 fold change” value is -0.0544.

For the sequence RRIRLRPPRLPRPRPRPSIKPRP, the “shrunken log2 fold change” value was -0.684.

As for RRIRGRPPRLPRPRPRPRVNPRP, the “shrunken log2 fold change” value turned out to be 0.394.

In the case of RRIRARPPRLPRPRPRPELEPRP, the “shrunken log2 fold change” value worked out at 1.88.

RRIRWRPPRLPRPRPRPKKTPRP: the “shrunken log2 fold change” value was determined as 0.0382.

As to RRIRNRPPRLPRPRPRPLQAPRP, the “shrunken log2 fold change” value is -0.0119.

In the case of RRIRQRPPRLPRPRPRPAYKPRP, the “shrunken log2 fold change” value was -0.534.

RRIRERPPRLPRPRPRPSAEPRP: the “shrunken log2 fold change” value worked out at 0.0172.

For RRIRSRPPRLPRPRPRPNENPRP, the “shrunken log2 fold change” value is -0.118.

As for RRIRHRPPRLPRPRPRPVPFPRP, the “shrunken log2 fold change” value was -0.136.

Take RRIRLRPPRLPRPRPRPFYTPRP: the “shrunken log2 fold change” value was -0.338.

Consider RRIRPRPPRLPRPRPRPICGPRP, for which the “shrunken log2 fold change” value came to 0.103.

As for RRIRPRPPRLPRPRPRPILPPRP, the “shrunken log2 fold change” value came to 0.198.

RRIRLRPPRLPRPRPRPQLDPRP: the “shrunken log2 fold change” value was 0.0655.

With RRIRDRPPRLPRPRPRPKCHPRP, the “shrunken log2 fold change” value amounted to 0.028.

Turning to RRIRYRPPRLPRPRPRPWLDPRP, the “shrunken log2 fold change” value is -0.225.

For the sequence RRIRPRPPRLPRPRPRPMLGPRP, the “shrunken log2 fold change” value is 0.252.

As for RRIRPRPPRLPRPRPRPQRPPRP, the “shrunken log2 fold change” value worked out at 0.272.

For the sequence RRIRYRPPRLPRPRPRPKLAPRP, the “shrunken log2 fold change” value is -0.0901.

Turning to RRIRHRPPRLPRPRPRPSEAPRP, the “shrunken log2 fold change” value is -0.344.

Consider RRIRQRPPRLPRPRPRPTTYPRP, for which the “shrunken log2 fold change” value was -0.282.

Take RRIRSRPPRLPRPRPRPWHAPRP: the “shrunken log2 fold change” value came to 0.0362.

As for RRIRFRPPRLPRPRPRPEHMPRP, the “shrunken log2 fold change” value is 0.0146.

RRIRSRPPRLPRPRPRPKAKPRP: the “shrunken log2 fold change” value is 0.626.

Regarding RRIRNRPPRLPRPRPRPCVYPRP, the “shrunken log2 fold change” value was -0.215.

RRIRLRPPRLPRPRPRPDHLPRP: the “shrunken log2 fold change” value was -0.0674.

As to RRIRDRPPRLPRPRPRPYRLPRP, the “shrunken log2 fold change” value is -0.0389.

On to RRIRGRPPRLPRPRPRPVTWPRP, for which the “shrunken log2 fold change” value amounted to 0.425.

In the case of RRIRMRPPRLPRPRPRPQHEPRP, the “shrunken log2 fold change” value was 0.212.

As to RRIRGRPPRLPRPRPRPEACPRP, the “shrunken log2 fold change” value is 1.11.

In the case of RRIRHRPPRLPRPRPRPSCDPRP, the “shrunken log2 fold change” value was -0.336.

As to RRIRHRPPRLPRPRPRPINDPRP, the “shrunken log2 fold change” value is -0.887.

With RRIRWRPPRLPRPRPRPKDNPRP, the “shrunken log2 fold change” value was -0.00672.

Turning to RRIRHRPPRLPRPRPRPCFEPRP, the “shrunken log2 fold change” value was -0.114.

Consider RRIRYRPPRLPRPRPRPEHSPRP, for which the “shrunken log2 fold change” value was -0.425.

Turning to RRIRPRPPRLPRPRPRPPIFPRP, the “shrunken log2 fold change” value is -0.246.

As for RRIRFRPPRLPRPRPRPPQVPRP, the “shrunken log2 fold change” value was -0.00567.

For the sequence RRIRIRPPRLPRPRPRPCSCPRP, the “shrunken log2 fold change” value was -0.446.

Regarding RRIRTRPPRLPRPRPRPLRNPRP, the “shrunken log2 fold change” value is -0.0969.

In the case of RRIRHRPPRLPRPRPRPFGCPRP, the “shrunken log2 fold change” value turned out to be 0.0728.

As to RRIRTRPPRLPRPRPRPALSPRP, the “shrunken log2 fold change” value was -0.0737.

Turning to RRIRFRPPRLPRPRPRPALDPRP, the “shrunken log2 fold change” value turned out to be 0.436.

RRIRNRPPRLPRPRPRPPAQPRP: the “shrunken log2 fold change” value came to 0.314.

For RRIRPRPPRLPRPRPRPLRKPRP, the “shrunken log2 fold change” value was found to be 0.319.

In the case of RRIRSRPPRLPRPRPRPLKFPRP, the “shrunken log2 fold change” value was -0.0436.

In the case of RRIRSRPPRLPRPRPRPVEAPRP, the “shrunken log2 fold change” value was -0.0651.

On to RRIRPRPPRLPRPRPRPMLSPRP, for which the “shrunken log2 fold change” value was determined as 0.0181.

Consider RRIRYRPPRLPRPRPRPAYSPRP, for which the “shrunken log2 fold change” value is -0.267.

For RRIRYRPPRLPRPRPRPLFKPRP, the “shrunken log2 fold change” value was -0.646.

For RRIRMRPPRLPRPRPRPEEAPRP, the “shrunken log2 fold change” value came out at 3.94.

RRIRFRPPRLPRPRPRPMRRPRP: the “shrunken log2 fold change” value was 0.542.

In the case of RRIRIRPPRLPRPRPRPVVMPRP, the “shrunken log2 fold change” value was -0.0043.

Consider RRIRNRPPRLPRPRPRPIRRPRP, for which the “shrunken log2 fold change” value is -0.163.

For the sequence RRIRIRPPRLPRPRPRPMQKPRP, the “shrunken log2 fold change” value stood at 0.0387.

Consider RRIRHRPPRLPRPRPRPAHDPRP, for which the “shrunken log2 fold change” value stood at 0.0776.

In the case of RRIRIRPPRLPRPRPRPRKCPRP, the “shrunken log2 fold change” value was -0.599.

Consider RRIRCRPPRLPRPRPRPHRWPRP, for which the “shrunken log2 fold change” value is 0.317.

RRIRLRPPRLPRPRPRPPVCPRP: the “shrunken log2 fold change” value came out at 0.124.

In the case of RRIRARPPRLPRPRPRPQAGPRP, the “shrunken log2 fold change” value was determined as 0.195.

For the sequence RRIRCRPPRLPRPRPRPIPRPRP, the “shrunken log2 fold change” value was 0.73.

For RRIRSRPPRLPRPRPRPTITPRP, the “shrunken log2 fold change” value was -0.229.

As for RRIRERPPRLPRPRPRPHQPPRP, the “shrunken log2 fold change” value was 0.202.

On to RRIRTRPPRLPRPRPRPAHQPRP, for which the “shrunken log2 fold change” value came to 3.43.

Consider RRIRRRPPRLPRPRPRPRDIPRP, for which the “shrunken log2 fold change” value amounted to 0.0666.

In the case of RRIRFRPPRLPRPRPRPCNFPRP, the “shrunken log2 fold change” value is -0.183.

Turning to RRIRNRPPRLPRPRPRPTEAPRP, the “shrunken log2 fold change” value stood at 0.21.

Take RRIRRRPPRLPRPRPRPFGMPRP: the “shrunken log2 fold change” value was -0.0784.

In the case of RRIRSRPPRLPRPRPRPMALPRP, the “shrunken log2 fold change” value amounted to 0.213.

Regarding RRIRARPPRLPRPRPRPVMIPRP, the “shrunken log2 fold change” value turned out to be 0.0471.

In the case of RRIRVRPPRLPRPRPRPGPTPRP, the “shrunken log2 fold change” value came to 0.448.

RRIRLRPPRLPRPRPRPHVWPRP: the “shrunken log2 fold change” value worked out at 0.198.

As for RRIRYRPPRLPRPRPRPRKKPRP, the “shrunken log2 fold change” value is -0.0257.

On to RRIRLRPPRLPRPRPRPFHYPRP, for which the “shrunken log2 fold change” value was -0.211.

With RRIRGRPPRLPRPRPRPLHIPRP, the “shrunken log2 fold change” value came to 0.105.

Take RRIRHRPPRLPRPRPRPQYVPRP: the “shrunken log2 fold change” value is -0.213.

As to RRIRFRPPRLPRPRPRPKHSPRP, the “shrunken log2 fold change” value was -0.434.

RRIRVRPPRLPRPRPRPVRVPRP: the “shrunken log2 fold change” value was determined as 0.905.

Regarding RRIRNRPPRLPRPRPRPNVGPRP, the “shrunken log2 fold change” value was -0.183.

Regarding RRIRERPPRLPRPRPRPCEPPRP, the “shrunken log2 fold change” value stood at 0.123.

Take RRIRMRPPRLPRPRPRPVIAPRP: the “shrunken log2 fold change” value stood at 0.125.

In the case of RRIRLRPPRLPRPRPRPRFWPRP, the “shrunken log2 fold change” value was 0.486.

With RRIRRRPPRLPRPRPRPKLSPRP, the “shrunken log2 fold change” value was determined as 0.262.

Consider RRIRTRPPRLPRPRPRPGMIPRP, for which the “shrunken log2 fold change” value is -0.0261.

For the sequence RRIRWRPPRLPRPRPRPMYLPRP, the “shrunken log2 fold change” value was -0.507.

Turning to RRIRFRPPRLPRPRPRPIINPRP, the “shrunken log2 fold change” value was -0.869.

With RRIRKRPPRLPRPRPRPKPSPRP, the “shrunken log2 fold change” value stood at 0.743.

Regarding RRIRWRPPRLPRPRPRPCYYPRP, the “shrunken log2 fold change” value was -0.0954.

For the sequence RRIRMRPPRLPRPRPRPYEWPRP, the “shrunken log2 fold change” value is -0.0304.

With RRIRARPPRLPRPRPRPWAIPRP, the “shrunken log2 fold change” value came to 0.253.

For RRIRRRPPRLPRPRPRPGCGPRP, the “shrunken log2 fold change” value is 0.657.

With RRIRYRPPRLPRPRPRPESMPRP, the “shrunken log2 fold change” value is -0.267.

Take RRIRARPPRLPRPRPRPYQMPRP: the “shrunken log2 fold change” value was -0.396.

Turning to RRIRIRPPRLPRPRPRPHETPRP, the “shrunken log2 fold change” value came to 0.0188.

As for RRIRCRPPRLPRPRPRPVMLPRP, the “shrunken log2 fold change” value is -0.433.

In the case of RRIRQRPPRLPRPRPRPRGTPRP, the “shrunken log2 fold change” value was 0.313.

Consider RRIRLRPPRLPRPRPRPGIMPRP, for which the “shrunken log2 fold change” value is -0.219.

RRIRIRPPRLPRPRPRPETLPRP: the “shrunken log2 fold change” value was -0.102.

For the sequence RRIRARPPRLPRPRPRPMYSPRP, the “shrunken log2 fold change” value is -0.08.

Turning to RRIRERPPRLPRPRPRPYQKPRP, the “shrunken log2 fold change” value was -0.0207.

RRIRLRPPRLPRPRPRPMWLPRP: the “shrunken log2 fold change” value was -0.0867.

On to RRIRVRPPRLPRPRPRPYSVPRP, for which the “shrunken log2 fold change” value is -0.265.

On to RRIRHRPPRLPRPRPRPHNMPRP, for which the “shrunken log2 fold change” value was -0.364.

Consider RRIRNRPPRLPRPRPRPCYKPRP, for which the “shrunken log2 fold change” value was -0.173.

For the sequence RRIRYRPPRLPRPRPRPPVEPRP, the “shrunken log2 fold change” value is -0.108.

As to RRIRKRPPRLPRPRPRPNVMPRP, the “shrunken log2 fold change” value was -0.122.

For the sequence RRIRLRPPRLPRPRPRPFRWPRP, the “shrunken log2 fold change” value stood at 0.202.

For RRIRMRPPRLPRPRPRPASWPRP, the “shrunken log2 fold change” value came to 0.901.

Take RRIRDRPPRLPRPRPRPPLWPRP: the “shrunken log2 fold change” value was 0.228.
